The test addresses human growth hormone (GH) (human, UniProt P01241). The experiment in a line: SPR, 20C.

Where a chain is given by its changes, count along the chain named.

human growth hormone (GH), sequence (P01241 27-217): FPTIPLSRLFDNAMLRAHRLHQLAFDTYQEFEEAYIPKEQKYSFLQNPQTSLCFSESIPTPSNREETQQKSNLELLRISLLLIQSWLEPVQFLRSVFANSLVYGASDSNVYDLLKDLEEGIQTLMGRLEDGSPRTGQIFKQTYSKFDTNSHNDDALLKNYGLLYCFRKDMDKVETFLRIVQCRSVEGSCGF

B1: GH41 (antibody, V domains shown)
VH: EVQLVESGGGLVQPGGSLRLSCAASGFNFSSSSIHWVRQAPGKGLEWVASISPYSGYTSYADSVKGRFTISADTSKNTAYLQMNSLRAEDTAVYYCARGYGGWYWWYTFAFDYWGQGTLVTV
VL: DIQMTQSPSSLSASVGDRVTITCRASQSVSSAVAWYQQKPGKAPKLLIYSASSLYSGVPSRFSGSRSGTDFTLTISSLQPEDFATYYCQQSSSSELLTFGQGTKVEIKR
B1 registered a Kd of 2.6 nM.

B2: GH35 (antibody, V domains shown)
VH: EVQLVESGGGLVQPGGSLRLSCAASGFNVYYSSIHWVRQAPGKGLEWVASIYSYSGYTSYADSVKGRFTISADTSKNTAYLQMNSLRAEDTAVYYCARWSYKAMDYWGQGTLVTV
VL: DIQMTQSPSSLSASVGDRVTITCRASQSVSSAVAWYQQKPGKAPKLLIYSASSLYSGVPSRFSGSRSGTDFTLTISSLQPEDFATYYCQQDYYAPITFGQGTKVEIKR
The molecule B2 displayed a Kd of 14 nM.

B3: GH32 (antibody, V domains shown)
VH: B2 VH with V29F, Y31S, S33Y, W99Y, S100K, K102M, A103G
VL: B2 VL with D91S, Y92S, Y93W, A94M
With B3, the affinity, expressed as Kd, was 17 nM.

B4: GH13 (antibody, V domains shown)
VH: EVQLVESGGGLVQPGGSLRLSCAASGFNFSSSSIHWVRQAPGKGLEWVASISSYYSSTYYADSVKGRFTISADTSKNTAYLQMNSLRAEDTAVYYCARQYTSPWHWYKAMDYWGQGTLVTV
VL: B2 VL with D91S, Y92S, Y93S, A94S, P95L
With B4, the Kd worked out at 0.3 nM.

B5: GH9 (antibody, V domains shown)
VH: B2 VH with Y31S, S33Y, W99H, Y101S, K102W
VL: B2 VL with D91S, Y92S, Y93F, A94V, I96L
The molecule B5 displayed a dissociation constant Kd of 18 nM.

B6: GH24 (antibody, V domains shown)
VH: EVQLVESGGGLVQPGGSLRLSCAASGFNVSSSSIHWVRQAPGKGLEWVASIYSSYGYTSYADSVKGRFTISADTSKNTAYLQMNSLRAEDTAVYYCARGDRYVWAMDYWGQGTLVTV
VL: B2 VL with D91S, Y92S, Y93S, A94Y, I96F
Turning to B6, binding was put at a Kd of 1.3 nM.

B7: GH15 (antibody, V domains shown)
VH: B6 VH with S33Y, S54Y, Y55S, G99T, D100S, R101Y, Y102G, V103R, W104G, M106L
VL: B2 VL with D91W, Y92S, Y93W, A94Y
In turn, B7 gave a Kd of 3.9 nM.

B8: GH20 (antibody, V domains shown)
VH: B2 VH with Y30S, Y31S, S33Y, W99Y, S100K, Y101W, K102Y
VL: B2 VL with D91S, Y92S, Y93W, A94Y
B8 yielded a Kd of 1.9 nM.

B9: GH25 (antibody, V domains shown)
VH: EVQLVESGGGLVQPGGSLRLSCAASGFNFSYYSIHWVRQAPGKGLEWVASISSYYGYTSYADSVKGRFTISADTSKNTAYLQMNSLRAEDTAVYYCARYFLGMDYWGQGTLVTV
VL: B2 VL with D91Y, Y92R, A94P
In turn, B9 displayed a Kd of 0.14 nM.

B10: GH23 (antibody, V domains shown)
VH: B2 VH with Y30S, Y31S, S33Y, W99F, S100W, Y101V, K102W
VL: B2 VL with D91S, Y92S, A94I, I96L
B10 registered a Kd of 0.17 nM.

B11: GH11 (antibody, V domains shown)
VH: EVQLVESGGGLVQPGGSLRLSCAASGFNIYSSSIHWVRQAPGKGLEWVASISSSSGSTSYADSVKGRFTISADTSKNTAYLQMNSLRAEDTAVYYCARKYSGYYSNWYYPALDYWGQGTLVTV
VL: B2 VL with D91S, Y92S, Y93S, A94S, P95L
The molecule B11 returned a Kd of 0.3 nM.

B12: GH10 (antibody, V domains shown)
VH: EVQLVESGGGLVQPGGSLRLSCAASGFNFYSSSIHWVRQAPGKGLEWVAYISPYSGYTSYADSVKGRFTISADTSKNTAYLQMNSLRAEDTAVYYCARIAYKWYMPYYYGMDYWGQGTLVTV
VL: B2 VL with D91S, Y92L, Y93S, A94S, P95L, I96V
B12 displayed a Kd of 3.6 nM.

B13: GH7 (antibody, V domains shown)
VH: B6 VH with S30Y, S54Y, Y55S, D100R, R101Y, Y102S, V103W, W104F, M106L
VL: B2 VL with D91Y, Y92W, Y93S, A94F
B13 registered a Kd of 6.1 nM.

B14: GH33 (antibody, V domains shown)
VH: EVQLVESGGGLVQPGGSLRLSCAASGFNFYSSYIHWVRQAPGKGLEWVASIYSYSGYTSYADSVKGRFTISADTSKNTAYLQMNSLRAEDTAVYYCARYWYYYNGMDYWGQGTLVTV
VL: B2 VL with D91I, Y92R, A94V
As to B14, the Kd came out at 5.8 nM.

B15: GH21 (antibody, V domains shown)
VH: B2 VH with Y30S, Y31S, S33Y, W99Y, S100M, K102Y
VL: B2 VL with D91S, Y92S, Y93W, A94S
Regarding B15, the affinity, expressed as Kd, was 7.5 nM.

B16: GH16 (antibody, V domains shown)
VH: EVQLVESGGGLVQPGGSLRLSCAASGFNLSSYYIHWVRQAPGKGLEWVASIYPSYGYTSYADSVKGRFTISADTSKNTAYLQMNSLRAEDTAVYYCARWGKWYGYPFSGLDYWGQGTLVTV
VL: B2 VL with Y92W, A94F
As to B16, binding was characterised by a dissociation constant (Kd) of 3.4 nM.

B17: GH2 (antibody, V domains shown)
VH: EVQLVESGGGLVQPGGSLRLSCAASGFNVSSSYIHWVRQAPGKGLEWVASIYSYYGYTSYADSVKGRFTISADTSKNTAYLQMNSLRAEDTAVYYCARENYGNWRSMYSGMDYWGQGTLVTV
VL: B2 VL with D91S, Y93F, A94L, I96F
Consider B17, for which binding was characterised by a dissociation constant (Kd) of 0.9 nM.

B18: GH6 (antibody, V domains shown)
VH: B6 VH with S31Y, D100H, R101G, Y102S, V103M
VL: B2 VL with D91S, Y92W, Y93S, A94L, I96F
For B18, the Kd came to 0.04 nM.

B19: GH38 (antibody, V domains shown)
VH: EVQLVESGGGLVQPGGSLRLSCAASGFNVYSSSIHWVRQAPGKGLEWVASIYPSYGYTSYADSVKGRFTISADTSKNTAYLQMNSLRAEDTAVYYCARWHWGWGSYGWGMDYWGQGTLVTV
VL: B2 VL with D91Q, Y92W, A94V
As for B19, the affinity, expressed as Kd, was 8.1 nM.

B20: GH3 (antibody, V domains shown)
VH: B6 VH with S50Y, Y52S, S54Y, G99E, D100G, R101W, V103W
VL: B2 VL with D91A, Y92W, A94L
B20 had a Kd of 21 nM.

B21: GH18 (antibody, V domains shown)
VH: EVQLVESGGGLVQPGGSLRLSCAASGFNFYSSYIHWVRQAPGKGLEWVASIYSYSGYTSYADSVKGRFTISADTSKNTAYLQMNSLRAEDTAVYYCARYKEPFGMDYWGQGTLVTV
VL: B2 VL with D91S, Y92N, A94M, I96L
Turning to B21, the Kd came to 12.5 nM.

B22: GH4 (antibody, V domains shown)
VH: B19 VH with Y30S, S33Y, P53S, W99E, H100S, W103S, S105Y, G107T, G109A
VL: B2 VL with D91S, Y92W, Y93R, A94Y, I96F
B22: the Kd stood at 5.4 nM.

B23: GH14 (antibody, V domains shown)
VH: B21 VH with Y33S, S55Y, Y99S, K100G, E101G, P102Y, F103I, M105F
VL: B2 VL with D91Y, Y92W, Y93E, A94Y, I96F
Molecule B23 yielded a Kd of 0.7 nM.

B24: GH1 (antibody, V domains shown)
VH: B21 VH with S31Y, Y33S, S50Y, K100S, E101W, P102W, F103G
VL: B2 VL with D91S, Y93S, A94V
For the molecule B24, the Kd was found to be 1.5 nM.

B25: GH34 (antibody, V domains shown)
VH: B2 VH with V29F, Y30S, S53P, Y54S, S55Y, W99Y, S100Y, K102F, A103G
VL: B2 VL with D91S, Y92W, Y93S, A94M, I96L
In turn, B25 registered a Kd of 20 nM.

B26: GH5 (antibody, V domains shown)
VH: B6 VH with S32Y, S33Y, S54Y, R101N, V103S
VL: B2 VL with D91S, Y92W, Y93Q, A94Y, I96F
B26 showed a Kd of 4.9 nM.

B27: GH22 (antibody, V domains shown)
VH: B21 VH with Y30S, K100R, E101F, P102I, F103G, G104A
VL: B2 VL with D91S, Y92H, Y93W, A94S
For B27, the affinity, expressed as Kd, was 1.1 nM.

B28: GH19 (antibody, V domains shown)
VH: B2 VH with V29F, Y30S, S33Y, W99Y, S100K, Y101W, K102W
VL: B2 VL with D91S, Y92G, Y93S, A94W
B28 had a Kd of 5.9 nM.

B29: GH12 (antibody, V domains shown)
VH: B21 VH with F29L, Y30S, S53P, Y99M, K100Y, E101W, P102T, F103G, G104A, M105L
VL: B2 VL with D91S, Y92S, A94S
B29 gave a Kd of 0.08 nM.

The values above are taken from US20260297205 (published 2026).
